Here are results for two molecules from PMC8223116, “A novel G-quadruplex aptamer-based spike trimeric antigen test for the detection of SARS-CoV-2”.

The target of this data set is SARS-CoV-2 spike RBD (SARS-CoV-2, UniProt P0DTC2 319-541). Put plainly: ALISA.

Take TCGTTGGTGGCGGCGTGCCCGGGGCACGGGGACGTCTCGCACGGC (ssDNA) [S13 truncated (45-mer)]: the binding result is on record as “no binding”.

For TGGGAGCCTGGGACATAGTGGGGAAAGAGGGGAAGAGTGGGTCT (structured_DNA) [S14 truncated (44-mer)], the binding result is on record as “no binding”.
